For this experiment, the target named is SARS-CoV-1 S protein (SARS-CoV-1, UniProt P59594 14-1195). In words: ELISA. In general terms: ELISA stands for enzyme-linked immunosorbent assay.

B1: Omi18 (antibody, V domains shown)
VH: QVQLVESGGGLIQPGGSLRLSCAASGITVSSNYMTWVRQAPGKGLEWVSLLYAGGSAFYADSVKGRFTISRDNSKNTLYLLMNSLRVGDTAVYYCARDLQVYGMDVWGQGTTVTVSS
VL: SYELTQPPSVSVAPGQTARITCGGNNDGAKSVHWYQQKPGQAPVLVVYDDSDRPSGIPERFSGSNSGNTATLTITRIEAGDEADYYCQVWDSSRDHVFGTGTKVTVL
With B1, the binding result was “no binding”.

B2: Omi12 (antibody, V domains shown)
VH: EVQLVESGPEVKKPGTSVKVSCKASGFSFSMSAMQWVRRARGQRLEWIGWIVPGSGNANYAQKFQERVTITRDESTNTGYMELSSLRSEDTAVYYCAAPHCNKTNCYDAFDIWGQGTMVTVSS
VL: AIRMTQSPGTLSLSPGERATLSCRASQSVRSSYLAWYQQKPGQAPRLLIYGASTRATGIPDRFSGSGSGTDFILTINRLEPEDLAVYYCQQFGSSPWTFGQGTKVDIK
For the molecule B2, the binding result is “no binding”.

B3: Omi16 (antibody, V domains shown)
VH: EVQLVESGGGVVQPGGSLRLSCAASGIIVSANYMTWVRQAPGKGLEWVSVIYPGGSTFYADSVKGRFTISRDNSKNTLYLQMNSLRVEDSAVYYCARDLELAGFNDFWGQGTLVTVSS
VL: DVVMTQSPGTLALSPGERATLSCRTSQSVSSNYLAWYQQKPGQAPRLLIYGASSRATGIPDRFSGSGSGTDFTLTISRLEPEDFAVYYCQQFGSSPRYTFGQGTKVEIK
Regarding B3, the binding result was “no binding”.

B4: Omi17 (antibody, V domains shown)
VH: QVQLVESGGGVVQPGGSLRLSCAASGVTVSSNYMSWVRQAPGKGLEWVSVLYAGGSTFYADSVKGRFTISRDNSKNTLYLQMNSLRAEDTAAYYCARDLAVAGFLDSWGQGTLVTVSS
VL: DIVMTQSPGTLSLSPGERATLSCRASQGVSSIYLAWYQQKPGQAPRLVLYGASSRATGIPDRFSGSGSGTDFTLTISRLEPEDFAVYYCQQYGSSPRYTFGQGTKVEIK
In the case of B4, the binding result is recorded as “no binding”.
